Measurements as given in patent US20180125892A1 (published 2018).

T1: human CD20 (human, UniProt P11836 1-297)
T1 construct: whole, on cells; cell-surface antigen; also called MS4A1
T1 sequence (looked up): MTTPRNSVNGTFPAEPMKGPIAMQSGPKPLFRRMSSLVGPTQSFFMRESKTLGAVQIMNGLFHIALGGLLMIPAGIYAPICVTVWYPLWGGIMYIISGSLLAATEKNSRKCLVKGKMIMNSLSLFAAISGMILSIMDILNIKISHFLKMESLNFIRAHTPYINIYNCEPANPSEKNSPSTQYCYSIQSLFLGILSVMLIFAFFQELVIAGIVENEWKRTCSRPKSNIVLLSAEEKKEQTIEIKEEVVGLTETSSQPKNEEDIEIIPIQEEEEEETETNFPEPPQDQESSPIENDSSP

B1: CD20-C8H2 CAR (other)
chain: QVQLVQSGAEVKKPGASVKVSCKASGYTFTRYNMHWVRQAPGQRLEWMGAIYPGNGDTSYSQKFKGRVTITADKSASTAYMELSSLRSEDTAVYYCARSFFYGSSDWYFDVWGQGTTVTVSSGGGGSGGGGSGGGGSGGGGSDIQLTQSPSFLSASVGDRVTITCRASSSVNNMHWYQQKPGKAPKPLIYATSNLASGVPSRFSGSGSGTEYTLTISSLQPEDFATYYCQQWIFNPPTFGQGTKLEIKTTTPAPRPPTPAPTIASQPLSLRPEACRPAAGGAVHTRGLDFACDIYIWAPLAGTCGVLLLSLVITLYCKRGRKKLLYIFKQPFMRPVQTTQEEDGCSCRFPEEEEGGCELRVKFSRSADAPAYQQGQNQLYNELNLGRREEYDVLDKRRGRDPEMGGKPRRKNPQEGLYNELQKDKMAEAYSEIGMKGERRRGKGHDGLYQGLSTATKDTYDALHMQALPPR
notes: CAR on cell surface; residues 1-21 = signal peptide
B2: CD20-C5H1 CAR (other)
chain: QVQLVQSGAEVKKPGASVKVSCKASGYTFTSYNMHWVRQAPGQGLEWMGAIYPGNGDTSYNPKFKGRVTMTADKSTRTAYMELSSLRSEDTAVYYCARSYFYGSSSWYFDVWGQGTTVTVSSGGGGSGGGGSGGGGSGGGGSEIVLTQSPATLSLSPGERATLSCRASSSVSSMHWYQQKPGQAPRPLIFATSNLASGIPARFSGSGSGTDYTLTISSLEPEDAAVYYCQQWIFNPPTFGGGTKVEIKTTTPAPRPPTPAPTIASQPLSLRPEACRPAAGGAVHTRGLDFACDIYIWAPLAGTCGVLLLSLVITLYCKRGRKKLLYIFKQPFMRPVQTTQEEDGCSCRFPEEEEGGCELRVKFSRSADAPAYQQGQNQLYNELNLGRREEYDVLDKRRGRDPEMGGKPRRKNPQEGLYNELQKDKMAEAYSEIGMKGERRRGKGHDGLYQGLSTATKDTYDALHMQALPPR
notes: as for B1
B3: CD20-C5H3 CAR (other)
chain: QVQLVQSGAEVKKPGSSVKVSCKASGYTFTSYNMHWVRQAPGQGLEWMGAIYPGNGDTSYNPKFKGRVTITADKSTRTAYMELSSLRSEDTAVYYCARSYFYGSSSWYFDVWGQGTTVTVSSGGGGSGGGGSGGGGSGGGGSEIVLTQSPATLSLSPGERATLSCRASSSVSSMHWYQQKPGQAPRPLIFATSNLASGIPARFSGSGSGTDYTLTISSLEPEDAAVYYCQQWIFNPPTFGGGTKVEIKTTTPAPRPPTPAPTIASQPLSLRPEACRPAAGGAVHTRGLDFACDIYIWAPLAGTCGVLLLSLVITLYCKRGRKKLLYIFKQPFMRPVQTTQEEDGCSCRFPEEEEGGCELRVKFSRSADAPAYQQGQNQLYNELNLGRREEYDVLDKRRGRDPEMGGKPRRKNPQEGLYNELQKDKMAEAYSEIGMKGERRRGKGHDGLYQGLSTATKDTYDALHMQALPPR
notes: as for B1
B4: CD20-C2H1 CAR (other)
chain: QVQLVQSGAEVKKPGASVKVSCKASGYTFTNYWMHWVRQAPGQGLEWMGFITPTTGYPEYNQKFKDRVTMTADKSTSTAYMELSSLRSEDTAVYYCARRKVGKGVYYALDYWGQGTTVTVSSGGGGSGGGGSGGGGSGGGGSDIQMTQSPSSLSASVGDRVTITCRASGNIHNYLAWYQQKPGKVPKLLIYNTKTLADGVPSRFSGSGSGTDYTLTISSLQPEDVATYYCQHFWSSPWTFGGGTKVEIKTTTPAPRPPTPAPTIASQPLSLRPEACRPAAGGAVHTRGLDFACDIYIWAPLAGTCGVLLLSLVITLYCKRGRKKLLYIFKQPFMRPVQTTQEEDGCSCRFPEEEEGGCELRVKFSRSADAPAYQQGQNQLYNELNLGRREEYDVLDKRRGRDPEMGGKPRRKNPQEGLYNELQKDKMAEAYSEIGMKGERRRGKGHDGLYQGLSTATKDTYDALHMQALPPR
notes: CAR on cell surface
B5: CD20-C2H2 CAR (other)
chain: QVQLVQSGAEVKKPGSSVKVSCKASGYTFTNYWMHWVRQAPGQGLEWMGFITPTTGYPEYNQKFKDRVTITADKSTSTAYMELSSLRSEDTAVYYCARRKVGKGVYYALDYWGQGTTVTVSSGGGGSGGGGSGGGGSGGGGSDIQMTQSPSSLSASVGDRVTITCRASGNIHNYLAWYQQKPGKVPKLLIYNTKTLADGVPSRFSGSGSGTDYTLTISSLQPEDVATYYCQHFWSSPWTFGGGTKVEIKTTTPAPRPPTPAPTIASQPLSLRPEACRPAAGGAVHTRGLDFACDIYIWAPLAGTCGVLLLSLVITLYCKRGRKKLLYIFKQPFMRPVQTTQEEDGCSCRFPEEEEGGCELRVKFSRSADAPAYQQGQNQLYNELNLGRREEYDVLDKRRGRDPEMGGKPRRKNPQEGLYNELQKDKMAEAYSEIGMKGERRRGKGHDGLYQGLSTATKDTYDALHMQALPPR
notes: as for B1
B6: CD20-C5H4 CAR (other)
chain: QVQLVQSGAEVKKPGSSVKVSCKASGYTFTSYNMHWVRQAPGQGLEWMGAIYPGNGDTSYNPKFKGRVTITADKSTRTAYMELSSLRSEDTAVYYCARSYFYGSSSWYFDVWGQGTTVTVSSGGGGSGGGGSGGGGSGGGGSDIQLTQSPSFLSASVGDRVTITCRASSSVSSMHWYQQKPGKAPKPLIFATSNLASGVPSRFSGSGSGTEYTLTISSLQPEDFATYYCQQWIFNPPTFGGGTKVEIKTTTPAPRPPTPAPTIASQPLSLRPEACRPAAGGAVHTRGLDFACDIYIWAPLAGTCGVLLLSLVITLYCKRGRKKLLYIFKQPFMRPVQTTQEEDGCSCRFPEEEEGGCELRVKFSRSADAPAYQQGQNQLYNELNLGRREEYDVLDKRRGRDPEMGGKPRRKNPQEGLYNELQKDKMAEAYSEIGMKGERRRGKGHDGLYQGLSTATKDTYDALHMQALPPR
notes: as for B1
B7: CD20-C5H2 CAR (other)
chain: QVQLVQSGAEVKKPGASVKVSCKASGYTFTSYNMHWVRQAPGQGLEWMGAIYPGNGDTSYNPKFKGRVTMTADKSTRTAYMELSSLRSEDTAVYYCARSYFYGSSSWYFDVWGQGTTVTVSSGGGGSGGGGSGGGGSGGGGSDIQLTQSPSFLSASVGDRVTITCRASSSVSSMHWYQQKPGKAPKPLIFATSNLASGVPSRFSGSGSGTEYTLTISSLQPEDFATYYCQQWIFNPPTFGGGTKVEIKTTTPAPRPPTPAPTIASQPLSLRPEACRPAAGGAVHTRGLDFACDIYIWAPLAGTCGVLLLSLVITLYCKRGRKKLLYIFKQPFMRPVQTTQEEDGCSCRFPEEEEGGCELRVKFSRSADAPAYQQGQNQLYNELNLGRREEYDVLDKRRGRDPEMGGKPRRKNPQEGLYNELQKDKMAEAYSEIGMKGERRRGKGHDGLYQGLSTATKDTYDALHMQALPPR
notes: as for B1
B8: CD20-C8H4 CAR (other)
chain: QVQLVQSGAEVKKPGSSVKVSCKASGYTFTRYNMHWVRQAPGQGLEWMGAIYPGNGDTSYSQKFKGRVTITADKSTSTAYMELSSLRSEDTAVYYCARSFFYGSSDWYFDVWGQGTTVTVSSGGGGSGGGGSGGGGSGGGGSDIQLTQSPSFLSASVGDRVTITCRASSSVNNMHWYQQKPGKAPKPLIYATSNLASGVPSRFSGSGSGTEYTLTISSLQPEDFATYYCQQWIFNPPTFGQGTKLEIKTTTPAPRPPTPAPTIASQPLSLRPEACRPAAGGAVHTRGLDFACDIYIWAPLAGTCGVLLLSLVITLYCKRGRKKLLYIFKQPFMRPVQTTQEEDGCSCRFPEEEEGGCELRVKFSRSADAPAYQQGQNQLYNELNLGRREEYDVLDKRRGRDPEMGGKPRRKNPQEGLYNELQKDKMAEAYSEIGMKGERRRGKGHDGLYQGLSTATKDTYDALHMQALPPR
notes: as for B1
B9: CD20-C8H1 CAR (other)
chain: QVQLVQSGAEVKKPGASVKVSCKASGYTFTRYNMHWVRQAPGQRLEWMGAIYPGNGDTSYSQKFKGRVTITADKSASTAYMELSSLRSEDTAVYYCARSFFYGSSDWYFDVWGQGTTVTVSSGGGGSGGGGSGGGGSGGGGSEIVLTQSPDFQSVTPKEKVTITCRASSSVNNMHWYQQKPDQSPKPLIYATSNLASGVPSRFSGSGSGTDYTLTINSLEAEDAATYYCQQWIFNPPTFGQGTKLEIKTTTPAPRPPTPAPTIASQPLSLRPEACRPAAGGAVHTRGLDFACDIYIWAPLAGTCGVLLLSLVITLYCKRGRKKLLYIFKQPFMRPVQTTQEEDGCSCRFPEEEEGGCELRVKFSRSADAPAYQQGQNQLYNELNLGRREEYDVLDKRRGRDPEMGGKPRRKNPQEGLYNELQKDKMAEAYSEIGMKGERRRGKGHDGLYQGLSTATKDTYDALHMQALPPR
notes: as for B1
B10: CD20-C8H3 CAR (other)
chain: QVQLVQSGAEVKKPGSSVKVSCKASGYTFTRYNMHWVRQAPGQGLEWMGAIYPGNGDTSYSQKFKGRVTITADKSTSTAYMELSSLRSEDTAVYYCARSFFYGSSDWYFDVWGQGTTVTVSSGGGGSGGGGSGGGGSGGGGSEIVLTQSPDFQSVTPKEKVTITCRASSSVNNMHWYQQKPDQSPKPLIYATSNLASGVPSRFSGSGSGTDYTLTINSLEAEDAATYYCQQWIFNPPTFGQGTKLEIKTTTPAPRPPTPAPTIASQPLSLRPEACRPAAGGAVHTRGLDFACDIYIWAPLAGTCGVLLLSLVITLYCKRGRKKLLYIFKQPFMRPVQTTQEEDGCSCRFPEEEEGGCELRVKFSRSADAPAYQQGQNQLYNELNLGRREEYDVLDKRRGRDPEMGGKPRRKNPQEGLYNELQKDKMAEAYSEIGMKGERRRGKGHDGLYQGLSTATKDTYDALHMQALPPR
notes: as for B1

Molecular target: T1, human CD20
Test: worded conclusion from JNL NFAT-luciferase reporter co-culture with CD20-positive cell lines
Text: To evaluate the functional ability of CD20 CARs to activate JNL cells, they were co-cultured with target cancer cells to read out their activation by quantifying luciferase expression. The humanized scFv-based CARs CD20-C2H1, -C2H2, -C2H3, -C2H4, -C3H1, -C3H2, -C3H3, -C3H4, -C5H1, -C5H2, -C5H3, -C5H4, -C8H1, -C8H2, -C8H3, and -C8H4, were compared to CD20-8aBBz and CD20-3, -3m, -3J, -3H5k3, and -3H5k1. The control CARs CD20-3 and CD20-8aBBz were used in all assays to compare assay variation and/or act as a control. The EGFRvIII CAR T cells (CAR 2174, Johnson et al., Science Translational Medicine 2015) were used as non-targeting control.
JNL CART cells were co-cultured with the Burkitt's lymphoma line Raji (RRID: CVCL_0511) and the diffuse large B cell lymphoma (DLBCL) lines Pfeiffer (RRID: CVCL_3326), HBL-1 (RRID: CVCL_4213) and TMD8 (RRID: CVCL_A442); K562 (RRID: CVCL_0004), a chronic myelogenous leukemia (CML) cell line, served as CD20-negative control. Co-cultures were set up in 384-well plates at effector-to-target (E:T) ratios of 4:1, 2:1, 1:1 and 0.5:1 and incubated for 24 h, after which the expression of luciferase by the activated JNL CAR T cells was quantified by britelite plus Reporter Gene Assay System (PerkinElmer, Waltham, Mass.). The amount of light emitted from each well (Luminescence) was a direct read-out of JNL activation by the respective CAR. […] Some of the humanized scFvs, which were fused to the transmembrane and signaling domains of the CARs, seem to have improved the efficacy of CARs to activate JNL T cells. These were CD20-C2H1, -C2H3, -C5H1, -C5H2, and -C8H3.

Binding result, binds:
B1, B2, B3, B4, B5, B6, B7, B8, B9, B10
